Molecular target: T1, GRK2 (Mus musculus, UniProt Q99MK8)
T1 construct: from tissue; host or cells: heart lysate of Tg-RKIP mice
T1 sequence (Q99MK8 1-689): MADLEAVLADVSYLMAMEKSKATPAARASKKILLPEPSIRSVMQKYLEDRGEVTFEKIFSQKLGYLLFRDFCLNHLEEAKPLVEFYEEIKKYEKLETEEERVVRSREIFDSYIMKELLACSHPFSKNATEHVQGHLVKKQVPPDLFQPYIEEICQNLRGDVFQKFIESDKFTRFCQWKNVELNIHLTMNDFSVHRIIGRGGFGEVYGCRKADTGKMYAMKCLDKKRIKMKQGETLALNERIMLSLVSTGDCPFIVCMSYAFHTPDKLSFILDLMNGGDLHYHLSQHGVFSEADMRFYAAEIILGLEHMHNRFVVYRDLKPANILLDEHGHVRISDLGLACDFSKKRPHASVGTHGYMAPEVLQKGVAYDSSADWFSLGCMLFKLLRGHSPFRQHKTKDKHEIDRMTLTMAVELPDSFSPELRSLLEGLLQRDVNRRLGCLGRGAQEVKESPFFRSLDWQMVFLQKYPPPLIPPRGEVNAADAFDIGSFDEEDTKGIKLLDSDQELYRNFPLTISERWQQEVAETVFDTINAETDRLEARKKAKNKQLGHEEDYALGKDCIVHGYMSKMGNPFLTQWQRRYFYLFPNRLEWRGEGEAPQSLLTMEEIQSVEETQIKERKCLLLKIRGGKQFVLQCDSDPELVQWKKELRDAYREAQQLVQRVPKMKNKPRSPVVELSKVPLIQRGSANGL
Assay: Depletion of GRK2 from Tg-RKIP heart lysates by affinity purification of RKIP
Assay type: binding
Conditions: serine-153 phosphorylated transgenic RKIP, n=4
Source text: A, Immunoblot detection of serine-153 phosphorylation of RKIP (pS153) in Tg-RKIP and B6 control hearts (n=5 mice/group). B, Removal of RKIP by affinity purification (AP) with immobilized RKIP-specific antibodies depletes the GRK2 protein from Tg-RKIP heart lysates. A control affinity purification with unrelated antibodies did neither deplete RKIP nor GRK2. Upper panels show representative experiments and lower panels show quantitative data evaluation (±s.d., n=4; *, p=0.0286; Mann Whitney Test). C, Isoproterenol-stimulated cAMP response in neonatal cardiomyocytes from Tg-RKIP and Tg-GRK2-K220R mice (n=6; ±s.d.).
The GRK2-inhibitory activity of transgenic RKIP (human RKIP˜PEBP1) was controlled in vivo. The phosphorylation of RKIP on serine-153 switches RKIP from Raf1 inhibition to GRK2 inhibition (Lorenz K, et al., Nature 426, 574-579 (2003)). Substantial serine-153 phosphorylation of RKIP was documented by immunoblot detection in Tg-RKIP hearts (FIG. 7A). […] We determined the GRK2 inhibition-mediated resensitization of the isoproterenol-stimulated cAMP response in neonatal cardiomyocytes as readout for GRK2 inhibition by RKIP and GRK2-K220R, respectively (Abd Alla, J, et al., J. Biol. Chem. 291, 2583-2600 (2016); Kong K C, et al., Biochemistry 47, 9279-9288 (2008)).

- GRK2 protein bound and neutralized in Tg-RKIP hearts: 90.4%
B1: RKIP: raf kinase inhibitor protein, a dual-specific GRK2 and Raf kinase inhibitor (protein, UniProt P30086 2-187, looked up)
Phosphatidylethanolamine-bindi …: PVDLSKWSGPLSLQEVDEQPQHPLHVTYAGAAVDELGKVLTPTQVKNRPTSISWDGLDSGKLYTLVLTDPDAPSRKDPKYREWHHFLVVNMKGNDISSGTVLSDYVGSGPPKGTGLHRYVWLVYEQDRPLKCDEPILSNRSGDHRGKFKVASFRKKYELRAPVAGTCYQAEWDDYVPKLYEQLSGK
